Experimental data reported in paper PMC12445078, “Structure-guided engineering of an aromatic ring-hydroxylating dioxygenase for broad-spectrum phthalate degradation” (Journal of Bacteriology, 2025).

Assays:
[1] = molecular target: T1, IPDOKF1 (isophthalate dioxygenase, IPDO) (Comamonas testosteroni, UniProt B7WRK8); assay: X-ray co-crystal structure, […] Å; format: binding; details: co-crystallized with 5 mM isophthalate, 0.1 M Tris-HCl pH 7.0; active site near mononuclear iron
T1 construct: gene CtesDRAFT_PD2139; 424 residues per protomer; ~50 kDa monomer, ~150 kDa trimer; primers encode N-terminus MNKEMSE and C-terminus PVFSL; Rieske [2Fe-2S]; C69/H71/C88/H91, Fe H177/H182/D337; assayed with separate reductase IPDRKF1
T1 sequence (B7WRK8 1-424): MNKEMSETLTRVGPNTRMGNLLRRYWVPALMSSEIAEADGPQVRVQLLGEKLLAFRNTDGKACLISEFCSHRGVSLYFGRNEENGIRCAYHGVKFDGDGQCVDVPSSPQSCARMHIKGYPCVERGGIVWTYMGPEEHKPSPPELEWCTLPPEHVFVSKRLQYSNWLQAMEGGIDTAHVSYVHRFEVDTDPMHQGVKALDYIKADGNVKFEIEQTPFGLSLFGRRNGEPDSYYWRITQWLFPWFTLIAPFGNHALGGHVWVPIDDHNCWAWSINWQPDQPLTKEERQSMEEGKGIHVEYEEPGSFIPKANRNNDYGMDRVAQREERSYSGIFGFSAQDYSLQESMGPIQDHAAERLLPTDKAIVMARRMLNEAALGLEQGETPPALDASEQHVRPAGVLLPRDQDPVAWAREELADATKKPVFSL

[2] = molecular target: isophthalate dioxygenase from Comamonas testosteroni KF1 (IPDOKF1) (Comamonas testosteroni KF1); assay: SEC; gel filtration on a Superdex 200 column; peaks at 62 mL (trimer, ~150 kDa) and 73 mL (monomer, ~50 kDa)
[3] = molecular target: isophthalate dioxygenase from Comamonas testosteroni KF1 (IPDOKF1) (Comamonas testosteroni KF1); assay: crystal structure; apo IPDOKF1 at 2.96 Å and isophthalate complex at 3.3 Å, space group P 2_(1) 3, one monomer per asymmetric unit; the trimer arises by the threefold axis
[4] = substrate: O=C(O)c1cccc(C(=O)O)c1; assay: purified protein; details: with reductase IPDRKF1, 1 mM NAD(P)H, 100 µM Fe(NH4)2(SO4)2, air-saturated 50 mM Tris, 25 °C, pH 7.5 in table footnote but pH 8.0 in methods
[5] = substrate: O=C(O)c1ccc(C(=O)O)cc1; assay: O2 consumption, Clark-type oxygen electrode; format: biochemical, Comamonas testosteroni; details: with reductase IPDRKF1, 1 mM NAD(P)H, 100 µM Fe(NH4)2(SO4)2, air-saturated 50 mM Tris, 25 °C, pH 7.5 in table footnote but pH 8.0 in methods
[6] = substrate: O=C(O)c1ccccc1C(=O)O; assay: O2 consumption, Clark-type oxygen electrode; format: biochemical, Comamonas testosteroni; details: with reductase IPDRKF1, 1 mM NAD(P)H, 100 µM Fe(NH4)2(SO4)2, air-saturated 50 mM Tris, 25 °C, pH 7.5 in table footnote but pH 8.0 in methods

In the case of `O=C(O)c1cccc(C(=O)O)c1` [IPA, isophthalate], the “X-ray co-crystal structure, 3.3 Å” value [1] is reported as “co-crystallized IPDOKF1 with its substrate and determined the structure of the isophthalate-bound complex”.

Molecule “isophthalate dioxygenase from Comamonas testosteroni KF1 (IPDOKF1) (enzyme)” has a stoichiometry N [2] of 3 and a stoichiometry N [3] of 3.

B1: IPDOKF1 (isophthalate dioxygenase, IPDO) (Comamonas testosteroni KF-1) (protein)
chain: MNKEMSETLTRVGPNTRMGNLLRRYWVPALMSSEIAEADGPQVRVQLLGEKLLAFRNTDGKACLISEFCSHRGVSLYFGRNEENGIRCAYHGVKFDGDGQCVDVPSSPQSCARMHIKGYPCVERGGIVWTYMGPEEHKPSPPELEWCTLPPEHVFVSKRLQYSNWLQAMEGGIDTAHVSYVHRFEVDTDPMHQGVKALDYIKADGNVKFEIEQTPFGLSLFGRRNGEPDSYYWRITQWLFPWFTLIAPFGNHALGGHVWVPIDDHNCWAWSINWQPDQPLTKEERQSMEEGKGIHVEYEEPGSFIPKANRNNDYGMDRVAQREERSYSGIFGFSAQDYSLQESMGPIQDHAAERLLPTDKAIVMARRMLNEAALGLEQGETPPALDASEQHVRPAGVLLPRDQDPVAWAREELADATKKPVFSL
B1 gave a Km [4] of 31 ± 7 µM, a kcat [4] of 4.9 s⁻¹ and a kcat/Km [4] of 160000 M⁻¹ s⁻¹.

B2: IPDOKF1 (isophthalate dioxygenase, IPDO) (Comamonas testosteroni KF-1; F249H/V178A) (protein)
chain: MNKEMSETLTRVGPNTRMGNLLRRYWVPALMSSEIAEADGPQVRVQLLGEKLLAFRNTDGKACLISEFCSHRGVSLYFGRNEENGIRCAYHGVKFDGDGQCVDVPSSPQSCARMHIKGYPCVERGGIVWTYMGPEEHKPSPPELEWCTLPPEHVFVSKRLQYSNWLQAMEGGIDTAHASYVHRFEVDTDPMHQGVKALDYIKADGNVKFEIEQTPFGLSLFGRRNGEPDSYYWRITQWLFPWFTLIAPHGNHALGGHVWVPIDDHNCWAWSINWQPDQPLTKEERQSMEEGKGIHVEYEEPGSFIPKANRNNDYGMDRVAQREERSYSGIFGFSAQDYSLQESMGPIQDHAAERLLPTDKAIVMARRMLNEAALGLEQGETPPALDASEQHVRPAGVLLPRDQDPVAWAREELADATKKPVFSL
notes: 424 residues per protomer; ~50 kDa monomer, ~150 kDa trimer; primers encode N-terminus MNKEMSE and C-terminus PVFSL; Rieske [2Fe-2S]; C69/H71/C88/H91, Fe H177/H182/D337; assayed with separate reductase IPDRKF1
In the case of B2, the Km [4] is reported as 32 ± 8 µM, the kcat [4] is reported as 4.8 s⁻¹ and the kcat/Km [4] is reported as 148000 M⁻¹ s⁻¹. The Km [5] was 95 ± 11 µM, the kcat [5] was 4.9 ± 0.2 s⁻¹ and the kcat/Km [5] was 51000 ± 6000 M⁻¹ s⁻¹. For the same molecule, the Km [6] was 91 ± 16 µM, the kcat [6] was 4 ± 0.2 s⁻¹ and the kcat/Km [6] was 44000 ± 8000 M⁻¹ s⁻¹.
